Data taken from the Human Domainome abundance scans (Beltran et al. 2025).
± gives the uncertainty stated by the source.

B1: Double-stranded RNA-specific adenosine deaminase, residues 296 to 358; numbered along this chain, P55265 (parent)
chain: MAEIKEKICDYLFNVSDSSALNLAKNIGLTKARDINAVLIDMERQGDVYRQGTTPPIWHLTDK

Variants of: B1
Assay: abundance fitness (aPCA) (normalised: wild type 0, dead -1); higher = more abundant; growth selection in yeast, the domain comes from the species named
Settings: Homo sapiens

Point of comparison: MAEIKEKICDYLFNVSDSSALNLAKNIGLTKARDINCVLIDMERQGDVYRQGTTPPIWHLTDK [A37C], abundance fitness -0.417 ± 0.072. Against it:
- MAEIKEKICDYLFNCSDSSALNLAKNIGLTKARDINAVLIDMERQGDVYRQGTTPPIWHLTDK [V15C] — within error, -0.365 ± 0.078
- MAEIKEKICDYLFNPSDSSALNLAKNIGLTKARDINAVLIDMERQGDVYRQGTTPPIWHLTDK [V15P] — within error, -0.64 ± 0.17
- MAEIKEKICDYLFNESDSSALNLAKNIGLTKARDINAVLIDMERQGDVYRQGTTPPIWHLTDK [V15E] — higher, -0.025 ± 0.057
- MAEIKEKGCDYLFNVSDSSALNLAKNIGLTKARDINAVLIDMERQGDVYRQGTTPPIWHLTDK [I8G] — within error, -0.471 ± 0.096
- MAEIKEKICDYLFNVSDSSALNLAKNIGLTKARDVNAVLIDMERQGDVYRQGTTPPIWHLTDK [I35V] — higher, -0.034 ± 0.045
- MAEIKEKICDYLFNVSDSSELNLAKNIGLTKARDINAVLIDMERQGDVYRQGTTPPIWHLTDK [A20E] — higher, -0.216 ± 0.098
- MAEIKEKICDYLFNVSDSSILNLAKNIGLTKARDINAVLIDMERQGDVYRQGTTPPIWHLTDK [A20I] — lower, -0.68 ± 0.12
- MAEIKEKICDYLFNVSDSSALNLAKNIGLYKARDINAVLIDMERQGDVYRQGTTPPIWHLTDK [T30Y] — higher, 0.141 ± 0.078
- MAEIKEKICDYLFNVSDSSALNLEKNIGLTKARDINAVLIDMERQGDVYRQGTTPPIWHLTDK [A24E] — within error, -0.447 ± 0.082
- MAEIKEKICDYLFNVSDSSALNLQKNIGLTKARDINAVLIDMERQGDVYRQGTTPPIWHLTDK [A24Q] — higher, -0.171 ± 0.1
- MAEIKEKICDYLFNVSDSSALNLWKNIGLTKARDINAVLIDMERQGDVYRQGTTPPIWHLTDK [A24W] — lower, -0.707 ± 0.088
- MAEIKEKICDYLFNVSDSSALNLKKNIGLTKARDINAVLIDMERQGDVYRQGTTPPIWHLTDK [A24K] — within error, -0.616 ± 0.14
- MWEIKEKICDYLFNVSDSSALNLAKNIGLTKARDINAVLIDMERQGDVYRQGTTPPIWHLTDK [A2W] — higher, -0.18 ± 0.064
- MCEIKEKICDYLFNVSDSSALNLAKNIGLTKARDINAVLIDMERQGDVYRQGTTPPIWHLTDK [A2C] — within error, -0.393 ± 0.086
- MDEIKEKICDYLFNVSDSSALNLAKNIGLTKARDINAVLIDMERQGDVYRQGTTPPIWHLTDK [A2D] — higher, 0.207 ± 0.099
- MAEIKEKICDYLFNVDDSSALNLAKNIGLTKARDINAVLIDMERQGDVYRQGTTPPIWHLTDK [S16D] — within error, -0.342 ± 0.074
- MAEIKEKICDYLFNVSDSSALNLAKNIGLTKARDINAVLIDMERQGDVYRQGTTPPIWELTDK [H59E] — within error, -0.301 ± 0.092
- MAEIKEKICDYLFNVSDSSALNLAKNIGLTKARDINAVLIDMERQGDVYRQGTTPPIWNLTDK [H59N] — higher, -0.224 ± 0.058
- MAEIKEKICDYLFNVSDSSALNLAKNIGLTKARDINAVLIDMERQGDVYRQGTTPPIWALTDK [H59A] — higher, 0.288 ± 0.048
- MAEIKEKICDYLFNVSDSSALNLAKNIGLTKARDINAVLIDMERQGDVTRQGTTPPIWHLTDK [Y49T] — higher, 0.135 ± 0.048
- MAEIKEKICDYLFNVSDSSALNLAKNIGLTKARDINAVLIDMERQGDVHRQGTTPPIWHLTDK [Y49H] — higher, -0.074 ± 0.076
- MAEIKEWICDYLFNVSDSSALNLAKNIGLTKARDINAVLIDMERQGDVYRQGTTPPIWHLTDK [K7W] — within error, -0.471 ± 0.27
- MAEIKEKICDYLFNVSDSSALNLAKNIGLTKARDINAVLIDMERQGDVYRQGTTPPIWHLMDK [T61M] — higher, -0.182 ± 0.062
- MAEIKEKICDYLFNVSDSSALNLAKNIGLTKARDINMVLIDMERQGDVYRQGTTPPIWHLTDK [A37M] — within error, -0.386 ± 0.071
- MAEIKEKICDYLFRVSDSSALNLAKNIGLTKARDINAVLIDMERQGDVYRQGTTPPIWHLTDK [N14R] — higher, 0.285 ± 0.044
- MAEIKEKICDYLFCVSDSSALNLAKNIGLTKARDINAVLIDMERQGDVYRQGTTPPIWHLTDK [N14C] — higher, -0.215 ± 0.072
- MAEIKEKICDYLFVVSDSSALNLAKNIGLTKARDINAVLIDMERQGDVYRQGTTPPIWHLTDK [N14V] — higher, -0.31 ± 0.034
- MAEIKEKICDYLFNVSDSSALNLAKNIGLTKARDINAVLIDMERQGVVYRQGTTPPIWHLTDK [D47V] — higher, 0.288 ± 0.047
- MAEIKEKICDYLFNVSDSSALNLAKNIGLTKARDINAVLIDMERQGSVYRQGTTPPIWHLTDK [D47S] — higher, -0.114 ± 0.051
- MAEIKEKICDYLFNVSDNSALNLAKNIGLTKARDINAVLIDMERQGDVYRQGTTPPIWHLTDK [S18N] — lower, -0.607 ± 0.096
- MAEIKEKICDYLFNVSDSSALNLAKNIGLTKAADINAVLIDMERQGDVYRQGTTPPIWHLTDK [R33A] — higher, 0.365 ± 0.052
- MAEIKEKICDYLFNVSDSSALNLAKNIGLTKAHDINAVLIDMERQGDVYRQGTTPPIWHLTDK [R33H] — higher, 0.094 ± 0.14
- MAEIKEKICDYLFNVSDSSALNLAKNIGLTKANDINAVLIDMERQGDVYRQGTTPPIWHLTDK [R33N] — higher, 0.195 ± 0.072
- MALIKEKICDYLFNVSDSSALNLAKNIGLTKARDINAVLIDMERQGDVYRQGTTPPIWHLTDK [E3L] — lower, -0.552 ± 0.055
- MAEIKEKICDYLFNVSDSSALNLAKNIGLTKARDIKAVLIDMERQGDVYRQGTTPPIWHLTDK [N36K] — higher, -0.098 ± 0.08
- MAEIKEKICDYLFNVSDSSALNLAKNIGLTKARDINAVLIDMERQGDVYIQGTTPPIWHLTDK [R50I] — lower, -0.798 ± 0.11
- MAEIKEKICDYLFNVSDSSALNLAKNIGLTKARDINAVLIDMERQGDVYKQGTTPPIWHLTDK [R50K] — higher, 0.12 ± 0.1
- MAEIKEKICDYLFNVSDSSALNLAKNIGLTKARDINAVLIDMSRQGDVYRQGTTPPIWHLTDK [E43S] — lower, -0.841 ± 0.08
- MAEIKEKICDYLFNVSDSSALNLAKNIGLTKARDINAVLIDMVRQGDVYRQGTTPPIWHLTDK [E43V] — lower, -0.873 ± 0.076
- MAEIKEKICDYLFNVSDSSALNLAKNIGLTKCRDINAVLIDMERQGDVYRQGTTPPIWHLTDK [A32C] — higher, -0.121 ± 0.08
- MAEIKEKICDYLFNVSDSSALNLAKNIGLTKARSINAVLIDMERQGDVYRQGTTPPIWHLTDK [D34S] — within error, -0.397 ± 0.055
- MAEIKEKICDYLFNVSDSSALNSAKNIGLTKARDINAVLIDMERQGDVYRQGTTPPIWHLTDK [L23S] — within error, -0.424 ± 0.077
